{"source": "paper PMC9292375", "about": "“Structural basis of an epitope tagging system derived from Haloarcula marismortui bacteriorhodopsin I D94N and its monoclonal antibody GD‐26” (The Febs Journal, 2021)", "binders": {"B1": {"name": "GD-26 Fab (antigen-binding fragment of monoclonal antibody GD-26) (Fab, V domains shown)", "VH": "QVQLRQSGPELVKPGASVKMSCRASGYTFTNYNIHWVRQRPGQGLEWIGWIYPVDGTTKYNEKFKDKTTLTSDKSSSTAYMSLSGLTSEDSAIYFCARGLDNWGQGTSVTVSS", "VL": "DVVLTQTPLSLSVTIGQPASISCRSSQRLLYSNGKTYLNWFQQRPGQAPKYLMFQVSKLGPGIPARFSGSGSETDFTLKISRVEAEDLGVYYCFQGTFFPHTFGGGTKLEMK", "notes": "Fab heavy chain of GD-26; whole chain in PDB 7DOH; light chain of GD-26; the Fab was secreted; source: Expi293F, transient co-transfection, secreted; purified (HisTrap Excel, Superdex 200 gel filtration)"}}, "test_in_all_cases": "ITC; synthetic peptide in the syringe titrated into GD-26 Fab or GD-26 IgG (10 μM) in the cell; 25 °C; 50 mM Tris, 150 mM NaCl, pH 7.5; one-set-of-sites model", "settings_in_all_cases": "both partners purified", "key": {"TD peptide G1M": {"molecular_target": "T1, TD peptide G1M (G1M (stands in the printed letters))", "T1 construct": "TD peptide (C terminus of HmBRI) with G1M; numbers count on: the TD peptide; source: synthetic peptide", "T1 chain": "MTGATPADD"}, "[1]": {"molecular_target": "T2, TD peptide N2 (Gly1 and Thr2 deleted) (Haloarcula marismortui (strain ATCC …))", "T2 construct": "TD peptide residues 3-9 (Gly1 and Thr2 deleted); numbers count on: the TD peptide; source: synthetic peptide", "T2 chain": "GATPADD"}, "TD peptide A7W": {"molecular_target": "T3, TD peptide A7W (A7W (stands in the printed letters))", "T3 construct": "TD peptide (C terminus of HmBRI) with A7W; numbers count on: the TD peptide; source: synthetic peptide", "T3 chain": "GTGATPWDD"}, "TD peptide P6F": {"molecular_target": "T4, TD peptide P6F (P6F (stands in the printed letters))", "T4 construct": "TD peptide (C terminus of HmBRI) with P6F; numbers count on: the TD peptide; source: synthetic peptide", "T4 chain": "GTGATFADD"}, "TD peptide A7Q": {"molecular_target": "T5, TD peptide A7Q (A7Q (stands in the printed letters))", "T5 construct": "TD peptide (C terminus of HmBRI) with A7Q; numbers count on: the TD peptide; source: synthetic peptide", "T5 chain": "GTGATPQDD"}, "TD peptide A7T": {"molecular_target": "T6, TD peptide A7T (A7T (stands in the printed letters))", "T6 construct": "TD peptide (C terminus of HmBRI) with A7T; numbers count on: the TD peptide; source: synthetic peptide", "T6 chain": "GTGATPTDD"}, "[2]": {"molecular_target": "T7, TD peptide (GTGATPADD), peptide V from the C terminus of HmBRI D94N (Haloarcula marismortui HmBRI C terminus …)", "T7 construct": "nine residues at the C terminus of Haloarcula marismortui bacteriorhodopsin I (HmBRI); residue numbers 1-9 count on: the TD peptide; also called TD tag; wild-type TD peptide; source: synthetic peptide", "T7 chain": "GTGATPADD"}, "TD peptide A7H": {"molecular_target": "T8, TD peptide A7H (A7H (stands in the printed letters))", "T8 construct": "TD peptide (C terminus of HmBRI) with A7H; numbers count on: the TD peptide; source: synthetic peptide", "T8 chain": "GTGATPHDD"}, "TD peptide A7E": {"molecular_target": "T9, TD peptide A7E (A7E (stands in the printed letters))", "T9 construct": "TD peptide (C terminus of HmBRI) with A7E; numbers count on: the TD peptide; source: synthetic peptide", "T9 chain": "GTGATPEDD"}, "TD peptide A7R": {"molecular_target": "T10, TD peptide A7R (A7R (stands in the printed letters))", "T10 construct": "TD peptide (C terminus of HmBRI) with A7R; numbers count on: the TD peptide; source: synthetic peptide", "T10 chain": "GTGATPRDD"}, "TD peptide P6G": {"molecular_target": "T11, TD peptide P6G (P6G (stands in the printed letters))", "T11 construct": "TD peptide (C terminus of HmBRI) with P6G; numbers count on: the TD peptide; source: synthetic peptide", "T11 chain": "GTGATGADD"}, "TD peptide A7P": {"molecular_target": "T12, TD peptide A7P (A7P (stands in the printed letters))", "T12 construct": "TD peptide (C terminus of HmBRI) with A7P; numbers count on: the TD peptide; source: synthetic peptide", "T12 chain": "GTGATPPDD"}, "TD peptide P6A": {"molecular_target": "T13, TD peptide P6A (P6A (stands in the printed letters))", "T13 construct": "TD peptide (C terminus of HmBRI) with P6A; numbers count on: the TD peptide; source: synthetic peptide", "T13 chain": "GTGATAADD"}, "[3]": {"molecular_target": "T14, TD peptide N4 (Gly1 to Ala4 deleted) (Haloarcula marismortui (strain ATCC …))", "T14 construct": "TD peptide residues 5-9 (Gly1, Thr2, Gly3 and Ala4 deleted); numbers count on: the TD peptide; source: synthetic peptide", "T14 chain": "TPADD"}}}
{"binder": "B1", "values": [{"measurement": "Kd", "setting": "TD peptide G1M", "result": 46.5, "unit": "nM"}, {"measurement": "Kd", "setting": "[1]", "result": 548, "unit": "nM"}, {"measurement": "Kd", "setting": "TD peptide A7W", "result": 34.4, "unit": "nM"}, {"measurement": "Kd", "setting": "TD peptide P6F", "result": 78.2, "unit": "nM"}, {"measurement": "Kd", "setting": "TD peptide A7Q", "result": 59.3, "unit": "nM"}, {"measurement": "Kd", "setting": "TD peptide A7T", "result": 449, "unit": "nM"}, {"measurement": "Kd", "setting": "[2]", "result": 12, "unit": "nM"}, {"measurement": "Kd", "setting": "TD peptide A7H", "result": 94, "unit": "nM"}, {"measurement": "Kd", "setting": "TD peptide A7E", "result": 46.4, "unit": "nM"}, {"measurement": "Kd", "setting": "TD peptide A7R", "result": 171, "unit": "nM"}, {"measurement": "Kd", "setting": "TD peptide P6G", "result": 892, "unit": "nM"}, {"measurement": "Kd", "setting": "TD peptide A7P", "result": 1040, "unit": "nM"}, {"measurement": "Kd", "setting": "TD peptide P6A", "result": 140, "unit": "nM"}, {"measurement": "binding result", "setting": "[3]", "result": "no binding"}]}
